According to the supplement of paper PMC9170038:

Test system: MS2 coat protein
Assay: apparent KD of MS2 coat protein; higher = weaker reporter binding
Details: Eterna round: R107
Summary of the method: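 Designed RNA switches were transcribed on-chip from Illumina sequencing clusters. They were then titrated with SNAP-549-labelled MS2 coat protein (twofold steps, 0.7 or 1.5 nM to 3 µM; 0.8–1.5 h to 10–20 min per step) in 100 mM Tris-HCl pH 7.5, 80 mM KCl, 4 mM MgCl2, without or with constant ligand. Apparent KD is the per-design median of normalised cluster binding-curve fits.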

[1] = input ligand: theophylline 20 uM
[2] = input ligand: theophylline 2 mM
[3] = input ligand: tryptophan 2.4 mM

Sequence	apparent KD of MS2 coat protein (input ligand: arginine 13.2 mM) [nM]	apparent KD of MS2 coat protein (input ligand: none) [nM]	apparent KD of MS2 coat protein [1] [nM]	apparent KD of MS2 coat protein [2] [nM]	apparent KD of MS2 coat protein [3] [nM]
AUAUUUAACGGAAGGAGCGGGAAAUAAUCAUGAUGACAUGAGGAUCACCCAUGUCUUAAAACCCAGGUAGGUCGCCGAAUAAUAA [Same State - Arginine B]	12.1	11.1	14.5	13	11.7
AGCCCUGUGCUAGAUACCAGCUACAUGAGGAUCACCCAUGUGCGUCAGGACUGACUGUGUAGCCCUUGGCAGCUACUCGCAUGUA [Exclusion - Theophylline B (Freestyle 5)]	14.4		20		14.5
ACUUUGUCGGGUGAUACCAGCCUCGGCACAUCUCGUGCCGAACAUGAGGAUCACCCAUGUGGCCCUUGGCAGCACAUGACAACUC [Quceanteri]	145		637		608
UCGCUCGCAGAAAUGCGAGCGAGUUGCGAUACCAGCCCGGAAACGGGCCCUUGGCAGCGCACAUGAGGAUCACCCAUGUCAUGUU [Exclusion - Theophylline A Attempt #2 (HarryS)]	17.3		24.7		18.1
GGACUAACCAGAAGGAGCGACACGCAGAAACUGCAAAAUCCUCCACACGAGGAUCACCCGUGUCAGGUAGGUCGCUGGUUAGUCG [ArgXB 16 #Zipper #MS2Left #StaticStem #Blueprint]	44.6	75.3	83.4	86.1	53.8
AGCGGCUCGAAAGAGUCGCACUCAUGUGAAGGAGCGCCCGUUAGGGCAGGUAGGUCGCACAUGAGGAUCACCCAUGUACCUUCUA [MAT - Exclusion Arginine A - Mod of Eli - D19]	53.1	196	282	312	140
CUUGGCUGUGCGGCCGCCACUGGCUCAUCCUGCAUUACAUGAGGAUCACCCAUGUUGCGGCCUCCCAGGACCGGGCAUAGCCUGA [Usesties]	127		702	684	
UAUCGAAACUGAAGGAGCGAGAUGACAAACAUGAGGAUCACCCAUGUUAUGGGUUGUUAAUCUCAGGUAGGUCGCAGUGGUAGCA [Same State Arginine B GF 17]	88.1	141	142	245	156
AGCACUGUGACGGCCGCCACUACAUAAGUUGGGUGGUCAGGUUCAUUACAUGAGGAUCACCCAUGUAGGACCGGGUCUCAGUGCA [Omei Trp Exc B A v9]	9.36	11.2	15.7	12.8	10.3
GGACUAACCAGAAGGAGCGACACAAAGCAGAAACUGCAUCCUCCGCACGAGGAUCACCCGUGUCAGGUAGGUCGCUGGUUAGUCG [ArgBX 28]	54	50.2	57	50.4	41.7
AUUCAUGGAAACAUGACAUACAUAACCGGUCGAGGACCGGUACGGCCGCCACUCGGUUGGUGGCACAUGAGGAUCACCCAUGUUA [SS Tryp A #10]	21.7		39.3	28.5	
AGCGACAUGCAUGAUACCAGCUACAUGAGGAUCACCCAUGUACGUCAGUAAUGACUGUGUAGCCCUUGGCAGCAUAGAGCAUGUC [Exclusion - Theophylline B (Freestyle 16)]	14.3		28.8		17.3
AGUCUUGAACGAAGGAGCGACGUACAUGAGGAUCACCCAUGUGGGAGCGAAAGCUCCCAACGUCAGGUAGGUCGCGUUCGAGACA [SS-ArgB29]	16.9	17.7	24.7	20.4	18.5
GCACAAGAUGGAAGGAGCGCUGGGAAAGGUCACAUGAGGAUCACCCAUGUUCUCCUUGCCGAGCAGGUAGGUCGCCAUCUUGUGC [SSAB NP+V+V2 #2]	30.4	37.8	50	56.1	33.9
GAUAUAUAUCGAAGGAGCGGCCCUUGAUCCUCAUGAGACAUGAGGAUCACCCAUGUCUCGGGCCAGGUAGGUCGCGAUAUAUAUC [Astros-omei-mod2]	26.3	21.2	28.8	24.2	22.8
CCUGCUACGGGAAACCGUAGCAGGAAUGAUACCAGUAGGAAAGACUACCCUUGGCAGCAUGGGUAACAUGAGGAUCACCCAUGUU [SSThA NP+V+V2 #6 Same Structure]	70.9	132	124	87.9	66
GCACCAGGUACGGAUACCAGCUGCCAGAGAUACAUGAGGAUCACCCAUGUGACCUGAUUUAGCCCUUGGCAGCUGUACCUGGUGC [SSThB NP+V+V2 #2 Same Structure]	178		472		680
UCGGGCAGAGCGGCCGCCACUGUUUGGCAUGCGGAUGAAGGAACAUGAGGAUCACCCAUGUAGAUUAGGACCGGGCUUUCGGAGA [cctchmullin]	19.3	21.4	32.8	25.5	22.2
GCUAGUGGCAGAAGGAGCGACAUUUUAAGUGGUCGAUACAUGAGGAUCACCCAUGUACUAUGUCAGGUAGGUCGCUGCCACUAGC [EAB NP+V+V2 #3 +-Same Structure]	39.1	34.8	38.8	42.9	34

Sequence	apparent KD of MS2 coat protein (input ligand: arginine 13.2 mM) [nM]	apparent KD of MS2 coat protein (input ligand: none) [nM]	apparent KD of MS2 coat protein [1] [nM]	apparent KD of MS2 coat protein [2] [nM]	apparent KD of MS2 coat protein [3] [nM]
CUAUAGAUAAGAAGGAGCGACAUGAGGAUCACCCAUGUCUACCACGUCGAAAGACGCUCAUGUCAGGUAGGUCGCUUAUUUAUAG [Astros-Eli-mod7]	71.1	117	99.2	129	84.1
GACUAACAUGAGGAUCACCCAUGUGAAGAUACCAGUAAUUUCACCUACCCUUGGCAGCUUUUUUUGAACGGCCUGAAUGCCUUGU [theeternabot_sameState_MS2_Theo_A_14]	12.2		17.5		11.9
UGGUACAUGGCGGCCGCCACUGGGUUGAAUACCUGAGGAUCACCCUGGUAAAACGCGAAAGCGACUAGGACCGGGUCAUGUACCU	98.8	148	162	385	44.5
AGCUCGCUUCCUCAAGCGUCAAAGACGCGUCGAGGACCGGUACGGCCGCCACUCGACCUGAGGAUCACCCGGGUCUAAGCGAGCA [TrypAX 8 #SwitchBubble #AlternativeMS2 #MS2Late #CuTurnoff]	45.8	115	136	177	325
GGCACAUAGUCGGCCGCCACUAGUGGGAAAUGGGAGAACAUGAGGAUCACCCAUGUUGCGUAGCCUAGGACCGGGACUAUGUGCC [Hippopotamus]	29.1	30.1	37.6	33.2	35
AGGACUUGCGUUCAAAAUCCCAUGUUGGAAGGAGCGCAUAUAGUUGCAGGUAGGUCGCCGACAUGAGGAUCACCCAUGUCUUUUC [Zasorequer]	36	40.3	43.8	40.5	35.2
AUAACGAGUGGUGGAAUACAUGGGUGAUAACGAGGACCGGUACGGCCGCCACUCGAUAACAUGAGGAUCACCCAUGUAAUAAUAA [|T'-M'-Trp-Ms2|_Design18]	57.3		160	139	
GAUGAACUAUAUGAUACCAGACAACAUGAGGAUCACCCAUGUGUAAGUCGUCCUCUGCCUGUCCCUUGGCAGCGUAUAGUUUAUC [XTheo B #18]	43.2		76.4		23.3
UGAUCCUACAGAGAUACCAGUGCCACUGAGUGACCAGACACAUGAGGAUCACCCAUGUAACACCCUUGGCAGCUCAACUAAAGGG [Same State Theophylline B GF17]	16.2		20.5		21.4
ACGUUUUAGUCGGCCGCCACUGAUCUCAUGUUCAACAUGAGGAUCACCCAUGUACCUUUUUUUAUCAGGACCGGGACGUAAUAGA [JR_SSTryptoB_Sub005]	85		328	359	
UUAAUCAAAUUAGAAAACUAAUUUGCAGAAGGAGCGUGAUAAAACACAGGUAGGUCGCUGAAGGGAACAUGAGGAUCACCCAUGU [AstrosSSArgA#11]	26.7	26	35.7	29.5	25.7
ACAUGAGGAUCACCCAUGUGGCGACUUGAUACCAGACCCGCACUAGUCCCUUGGCAGCAACUACGUGUGGGACACCCAUGUUAAG [lplmullin]	17.3		22.7		16
GGUGGGACUUGUGAUACCAGCCUAAUUCUAAACGAAUUGCACAUGAGGAUCACCCAUGUCGGCCCUUGGCAGCAUGAGUAUUUAU [Anartiison]	73.3		104		117
AUUAUAGUUUAUAACGAAGUUGAUACAGAAGGAGCGGGAGUAAUCUCAGGUAGGUCGCUGAUAAUACAUGAGGAUCACCCAUGUG [#15 Same State - Arginine A]	17.1	19	19.4	24.7	18.9
AGAUUAAAGAGUGAUACCAGACUACAUGAGGAUCACCCAUGUUACAUUUGAGUAGCUUUAGUCCCUUGGCAGCACUUUAUGUACA [JR_Nu_ExcTheophyB_Sub023]	45.4		42.9		54.2
GCACAAGAUGGAAGGAGCGCUGGUAGGUGACACAUGAGGAUCACCCAUGUGCUCCUUGCCGAGCAGGUAGGUCGCCAUCUUGUGC [SSAB NP+V+V2 #7]	21.1	27.7	40.3	36.1	25.5
AGACAUGUAAGAUAAUUGACUUUUACAGAUACCAGACUGUCUAAUGUCCCUUGGCAGCUGCAUUACAUGAGGAUCACCCAUGUUA [JR_ExcTheophyA_Sub011]	15.9		20.3		17.5
ACAUGAGGAUCACCCAUGUUCCUCGCCGAUACCAGUGAAGAAGAACGCCCUUGGCAGCGGAAAGAAUAUAUUGGAGAUGAUAUAU [6.U]	111		252		225
ACGUUGAAGUCGGCCGCCACUGAUUUCAUGUUCAACAUGAGGAUCACCCAUGUACCUUAUGUUAACAGGACCGGGACGUAUACGA [JR_SSTryptoB_Sub002]	264		341	551	
